T1: recombinant full-length Apaf-1XL (UniProt O14727-1 1-1248)
T1 construct: Oligomerised into the apoptosome with bovine cytochrome c (Sigma) and dATP/MgCl2; also called oligomerized Apaf-1; Apaf-1 apoptosome; source: Hi-five or Sf21 cells, baculovirus, purified
T1 sequence (looked up): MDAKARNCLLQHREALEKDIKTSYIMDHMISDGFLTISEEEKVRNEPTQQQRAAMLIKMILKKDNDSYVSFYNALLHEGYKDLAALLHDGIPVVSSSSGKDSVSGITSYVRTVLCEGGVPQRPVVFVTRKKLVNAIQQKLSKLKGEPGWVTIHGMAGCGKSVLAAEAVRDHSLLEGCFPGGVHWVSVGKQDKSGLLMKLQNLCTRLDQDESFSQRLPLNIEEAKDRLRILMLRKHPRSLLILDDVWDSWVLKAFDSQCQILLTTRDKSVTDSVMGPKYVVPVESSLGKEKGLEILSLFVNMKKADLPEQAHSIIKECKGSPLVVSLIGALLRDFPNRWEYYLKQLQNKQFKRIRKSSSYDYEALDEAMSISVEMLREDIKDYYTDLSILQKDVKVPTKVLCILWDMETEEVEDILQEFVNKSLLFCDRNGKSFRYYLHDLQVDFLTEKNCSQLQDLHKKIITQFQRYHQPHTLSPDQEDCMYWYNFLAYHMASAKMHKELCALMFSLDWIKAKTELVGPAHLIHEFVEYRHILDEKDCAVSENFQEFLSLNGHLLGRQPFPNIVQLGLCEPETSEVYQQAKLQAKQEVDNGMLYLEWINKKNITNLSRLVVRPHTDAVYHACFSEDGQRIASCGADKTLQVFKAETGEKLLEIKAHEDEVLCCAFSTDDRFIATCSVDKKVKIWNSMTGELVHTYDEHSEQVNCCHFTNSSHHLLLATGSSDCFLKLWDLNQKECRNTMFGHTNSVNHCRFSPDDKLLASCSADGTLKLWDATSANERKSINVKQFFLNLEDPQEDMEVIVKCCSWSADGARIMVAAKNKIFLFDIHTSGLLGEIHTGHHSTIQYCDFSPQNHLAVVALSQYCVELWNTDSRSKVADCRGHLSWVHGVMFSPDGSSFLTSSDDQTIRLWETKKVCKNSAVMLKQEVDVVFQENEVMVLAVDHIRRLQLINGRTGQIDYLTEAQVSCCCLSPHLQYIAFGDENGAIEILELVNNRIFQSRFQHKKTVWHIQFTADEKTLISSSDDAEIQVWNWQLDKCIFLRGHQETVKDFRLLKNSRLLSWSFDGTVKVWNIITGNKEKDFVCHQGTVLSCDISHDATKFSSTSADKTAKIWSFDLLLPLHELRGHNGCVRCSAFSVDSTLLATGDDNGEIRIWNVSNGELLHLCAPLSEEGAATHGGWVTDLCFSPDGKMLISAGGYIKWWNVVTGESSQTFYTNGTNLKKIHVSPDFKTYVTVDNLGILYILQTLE

T2: processed two-chain caspase-9 C9-p35/p12 (UniProt P55211 1-315; P55211 316-416)
T2 construct: caspase-9, p35 (prodomain and large subunit), ends at Asp-315 (PEPD315); caspase-9, p12 small subunit with the intersubunit linker, begins after Asp-315; Purified on Ni2+-NTA; also called processed C9; cleaved C9; source: E. coli BL21(DE3)pLysS, wild-type ProC9 overexpressed and autocleaved at Asp-315, purified (Ni2+-NTA, Mono-Q)
T2 sequence (looked up) 1: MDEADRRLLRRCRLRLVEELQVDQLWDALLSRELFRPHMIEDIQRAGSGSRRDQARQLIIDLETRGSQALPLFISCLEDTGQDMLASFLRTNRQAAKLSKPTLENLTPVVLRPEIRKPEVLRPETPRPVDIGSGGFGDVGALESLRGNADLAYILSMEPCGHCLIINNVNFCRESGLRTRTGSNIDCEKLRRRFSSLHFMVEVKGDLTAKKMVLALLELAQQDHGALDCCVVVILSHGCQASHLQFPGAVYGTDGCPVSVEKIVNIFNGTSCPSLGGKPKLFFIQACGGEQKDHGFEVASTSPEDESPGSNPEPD
T2 sequence (looked up) 2: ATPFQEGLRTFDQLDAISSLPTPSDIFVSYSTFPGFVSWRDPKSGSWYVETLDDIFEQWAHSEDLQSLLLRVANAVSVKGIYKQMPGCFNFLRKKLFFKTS

B1: C9-p35/p12-CIVSM (enzyme)
chain 1: T2 sequence (looked up) 1
chain 2: T2 sequence (looked up) 2 with G87C, C88I, F89V, N90S, F91M
notes: caspase-9, p35 (prodomain and large subunit), ends at Asp-315; caspase-9, p12 small subunit, GCFNF dimer motif replaced by the caspase-3 motif CIVSM; Homodimer by SEC-MALS; also called GCFNF→CIVSM; source: E. coli BL21(DE3)pLysS, ProC9-CIVSM fully processed during expression, purified (Ni2+-NTA, Mono-Q); copies: 2 + 2
B2: biotinylated Apaf-1 CARD-LZ-Avi (domain or fragment)
chain: not shown
modifications: biotin on the AviTag (BirA)
notes: Apaf-1 CARD (1-137); GCN4 leucine zipper, C-terminal to the CARD, followed by the AviTag and the His6-tag; Cloned into pRSF-Duet1; also called Apaf-1 CARDs; source: E. coli BL21(DE3)pLysS, purified (Ni2+-NTA, Mono-Q), biotinylated with BirA, avidin column
B3: C9 prodomain (domain or fragment)
chain: MDEADRRLLRRCRLRLVEELQVDQLWDALLSRELFRPHMIEDIQRAGSGSRRDQARQLIIDLETRGSQALPLFISCLEDTGQDMLASFLRTNRQAAKLSKPTLENLTPVVLRPEIRKPEVLRPETPRPVDIGSGGFG
B4: Apaf-1 NOD protein (127-530) (domain or fragment, UniProt O14727 127-530, looked up)
chain: VTRKKLVNAIQQKLSKLKGEPGWVTIHGMAGCGKSVLAAEAVRDHSLLEGCFPGGVHWVSVGKQDKSGLLMKLQNLCTRLDQDESFSQRLPLNIEEAKDRLRILMLRKHPRSLLILDDVWDSWVLKAFDSQCQILLTTRDKSVTDSVMGPKYVVPVESSLGKEKGLEILSLFVNMKKADLPEQAHSIIKECKGSPLVVSLIGALLRDFPNRWEYYLKQLQNKQFKRIRKSSSYDYEALDEAMSISVEMLREDIKDYYTDLSILQKDVKVPTKVLCILWDMETEEVEDILQEFVNKSLLFCDRNGKSFRYYLHDLQVDFLTEKNCSQLQDLHKKIITQFQRYHQPHTLSPDQEDCMYWYNFLAYHMASAKMHKELCALMFSLDWIKAKTELVGPAHLIHEFVEYR
notes: aa 127–530); Oligomerised with dATP/MgCl2; also called T7-NOD; NOD apoptosome complexes; source: E. coli BL21(DE3)pLysS, purified (Ni2+-NTA, Mono-Q; MBP removed with TEV protease, negative selection on Ni2+-NTA beads; not shown: MBP, N-terminal, cleaved; His6, internal (between MBP and NOD), cleaved

Changes are numbered by the printed parent chain.

Series [1] deals with the molecule itself. In words: SEC-MALS; recombinant C9 proteins 200 μl at 40 μM; 20 mM HEPES, 50 mM NaCl, pH 8.0; 0.5 ml/min.
Series [2] concerns the target T1, recombinant full-length Apaf-1XL. The experiment in a line: SEC; Apaf-1 (300 nM) with C9 protein (200 nM) and Cc/dATP, 30 min 37 °C; Superose-6 gel filtration, pooled fractions precipitated and immunoblotted for Apaf-1 and C9. The conditions noted are these: both partners purified.
Series [3] concerns the target T2, processed two-chain caspase-9 C9-p35/p12. The experiment in a line: SPR; biotinylated Apaf-1 CARD-LZ-Avi immobilised on an SA chip; C9 proteins 125 nM-2 μM as analytes; 0.01 M HEPES, 0.15 M NaCl, 3 mM EDTA, 0.05% P20; room temperature; affinities by equilibrium analysis, kinetics fitted to a two-state model. As to conditions: both partners purified.
Series [4] has as its target B1. The series is described as above. The conditions noted are these: both partners purified.
The target in series [5] is B2. Described as above. The conditions noted are these: both partners purified.
Series [6] concerns the molecule itself. In words: SEC; Apaf-1 NOD (1.5 μM) and ΔPro-C9-TM (80 nM) with dATP/MgCl2 (2 mM each), 30 min 37 °C; Superose-6 in 20 mM HEPES, 50 mM NaCl, 10 mM DTT, pH 8.0; fractions immunoblotted with anti-T7.

Consider B1, for which the “stoichiometry N” value in series [1] is 2. Besides, the binding result in series [2] is on record as “binds”.

Turning to B2, the dissociation constant (Kd) came to 388 nM in series [3] and 68 nM in series [4].

In series [5], B3 registered a Kd of 41800 nM.

With B4, the binding result in series [6] is recorded as “binds”.

For the origin of these results see PMC5123071, “The Apaf-1 apoptosome induces formation of caspase-9 homo- and heterodimers with distinct activities” (Nature Communications, 2016).
